Assay results: US10450368 (DUKE UNIVERSITY, dated 2019)

Experiments:
[1] = target: T1, SSA; experiment: AtheNA, Ab 25 ug/ml
T1 construct: also called SSA (Ro)

[2] = target: T2, SSB (UniProt P05455 1-408); experiment: AtheNA, Ab 25 ug/ml
T2 sequence: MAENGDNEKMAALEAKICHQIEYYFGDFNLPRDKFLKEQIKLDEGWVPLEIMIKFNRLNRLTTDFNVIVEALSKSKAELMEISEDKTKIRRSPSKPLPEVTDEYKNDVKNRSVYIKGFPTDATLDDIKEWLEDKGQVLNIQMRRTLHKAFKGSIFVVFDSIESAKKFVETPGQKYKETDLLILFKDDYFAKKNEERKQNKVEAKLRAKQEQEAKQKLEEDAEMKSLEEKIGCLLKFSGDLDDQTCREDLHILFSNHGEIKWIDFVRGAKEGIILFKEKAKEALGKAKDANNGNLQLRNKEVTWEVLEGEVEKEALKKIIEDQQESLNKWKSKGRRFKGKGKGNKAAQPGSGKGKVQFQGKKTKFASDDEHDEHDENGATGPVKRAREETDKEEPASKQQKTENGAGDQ

[3] = target: T3, Sm (Smith antigen); experiment: AtheNA, Ab 25 ug/ml
T3 construct: Protein complex

[4] = target: T4, Jo-1 (UniProt P12081 1-509); experiment: AtheNA, Ab 25 ug/ml
T4 sequence: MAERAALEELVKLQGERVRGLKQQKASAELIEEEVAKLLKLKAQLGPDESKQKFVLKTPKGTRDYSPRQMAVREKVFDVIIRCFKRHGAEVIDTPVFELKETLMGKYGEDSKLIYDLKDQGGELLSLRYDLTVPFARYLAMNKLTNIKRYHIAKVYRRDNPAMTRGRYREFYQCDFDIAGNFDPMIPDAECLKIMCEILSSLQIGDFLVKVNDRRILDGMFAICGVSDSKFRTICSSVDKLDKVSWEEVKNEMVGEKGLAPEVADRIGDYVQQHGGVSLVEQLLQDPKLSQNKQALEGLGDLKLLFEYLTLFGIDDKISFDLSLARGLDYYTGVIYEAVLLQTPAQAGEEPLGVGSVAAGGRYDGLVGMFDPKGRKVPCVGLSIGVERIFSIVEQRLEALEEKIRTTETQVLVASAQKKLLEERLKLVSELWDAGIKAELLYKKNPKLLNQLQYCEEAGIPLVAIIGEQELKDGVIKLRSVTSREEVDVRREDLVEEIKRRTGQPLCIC

[5] = target: T3, Sm (Smith antigen); experiment: AtheNA, Ab 12.5 ug/ml
[6] = target: T5, RNP (ribonucleoprotein); experiment: AtheNA, Ab 12.5 ug/ml
T5 construct: Protein-RNA complex

[7] = target: T4, Jo-1; experiment: AtheNA, Ab 12.5 ug/ml
[8] = target: T1, SSA; experiment: AtheNA, Ab 6.25 ug/ml
[9] = target: T2, SSB; experiment: AtheNA, Ab 6.25 ug/ml
[10] = target: T3, Sm (Smith antigen); experiment: AtheNA, Ab 6.25 ug/ml
[11] = target: T5, RNP (ribonucleoprotein); experiment: AtheNA, Ab 6.25 ug/ml
[12] = target: T6, Scl-70 (UniProt P11387 1-765); experiment: AtheNA, Ab 6.25 ug/ml
T6 sequence: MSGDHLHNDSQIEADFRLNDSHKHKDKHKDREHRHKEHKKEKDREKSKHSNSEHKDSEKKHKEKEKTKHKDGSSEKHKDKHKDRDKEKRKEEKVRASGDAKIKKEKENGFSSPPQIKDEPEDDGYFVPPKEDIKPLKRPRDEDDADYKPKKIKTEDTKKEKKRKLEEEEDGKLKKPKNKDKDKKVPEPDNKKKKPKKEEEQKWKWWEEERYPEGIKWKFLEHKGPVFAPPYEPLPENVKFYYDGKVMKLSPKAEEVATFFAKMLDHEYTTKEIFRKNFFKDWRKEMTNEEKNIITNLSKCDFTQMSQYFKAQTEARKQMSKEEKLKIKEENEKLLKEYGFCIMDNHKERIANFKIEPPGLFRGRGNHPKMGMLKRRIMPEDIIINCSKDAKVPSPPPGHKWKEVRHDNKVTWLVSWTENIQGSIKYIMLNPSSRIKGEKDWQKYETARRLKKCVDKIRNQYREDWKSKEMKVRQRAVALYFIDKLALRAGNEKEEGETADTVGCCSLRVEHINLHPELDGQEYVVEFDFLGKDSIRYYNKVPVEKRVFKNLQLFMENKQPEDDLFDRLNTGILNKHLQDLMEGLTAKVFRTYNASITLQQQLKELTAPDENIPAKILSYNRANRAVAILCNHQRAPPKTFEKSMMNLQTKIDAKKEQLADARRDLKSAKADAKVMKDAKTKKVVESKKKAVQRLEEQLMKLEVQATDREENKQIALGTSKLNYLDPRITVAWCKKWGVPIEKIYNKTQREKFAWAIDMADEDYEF

[13] = target: T4, Jo-1; experiment: AtheNA, Ab 6.25 ug/ml
[14] = target: T7, Centromere B (UniProt P07199 1-599); experiment: AtheNA, Ab 6.25 ug/ml
T7 construct: also called Cent B
T7 sequence: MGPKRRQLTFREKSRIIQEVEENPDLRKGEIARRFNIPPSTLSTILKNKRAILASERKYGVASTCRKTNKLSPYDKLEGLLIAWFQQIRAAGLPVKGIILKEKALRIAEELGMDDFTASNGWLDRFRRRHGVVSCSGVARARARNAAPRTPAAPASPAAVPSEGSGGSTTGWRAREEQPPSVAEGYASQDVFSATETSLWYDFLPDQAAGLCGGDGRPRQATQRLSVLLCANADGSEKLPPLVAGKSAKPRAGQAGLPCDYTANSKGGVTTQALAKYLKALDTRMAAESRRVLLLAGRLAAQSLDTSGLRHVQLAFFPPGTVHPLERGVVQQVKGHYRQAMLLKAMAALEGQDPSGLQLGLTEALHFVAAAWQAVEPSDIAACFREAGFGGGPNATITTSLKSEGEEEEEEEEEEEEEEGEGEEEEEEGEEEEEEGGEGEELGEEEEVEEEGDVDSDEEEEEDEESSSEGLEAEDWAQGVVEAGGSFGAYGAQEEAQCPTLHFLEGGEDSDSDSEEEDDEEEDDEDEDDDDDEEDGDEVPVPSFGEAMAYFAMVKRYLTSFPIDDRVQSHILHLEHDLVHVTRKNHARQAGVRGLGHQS

[15] = target: T8, Histones; experiment: AtheNA, Ab 6.25 ug/ml
T8 construct: Mixture of proteins

B1: CH557 (antibody, V domains shown)
VH: QVRLAQYGGGVKRLGATMTLSCVASGYTFNDYYIHWVRQAPGQGFELLGYIDPANGRPDYAGALRERLSFYRDKSMETLYMDLRSLRYDDTAMYYCVRNVGTAGSLLHYDHWGSGSPVIVSS
VL: EIVLTQSPATLSASPGERVTLTCRASRSVRNNVAWYQHKGGQSPRLLIYDASTRAAGVPARFSGSASGTEFTLAISNLESEDFTVYFCLQYNNWWTFGQGTRVDIK
notes: also called CH235.12; CH557_4A/293i
- AtheNA signal [1]: 4 relative luminescence units
- AtheNA signal [2]: 12 relative luminescence units
- AtheNA signal [3]: 6 relative luminescence units
- AtheNA signal [4]: 2 relative luminescence units
- AtheNA signal [5]: 6 relative luminescence units
- AtheNA signal [6]: 3 relative luminescence units
- AtheNA signal [7]: 5 relative luminescence units
- AtheNA signal [8]: 4 relative luminescence units
- AtheNA signal [9]: 5 relative luminescence units
- AtheNA signal [10]: 4 relative luminescence units
- AtheNA signal [11]: 4 relative luminescence units
- AtheNA signal [12]: 3 relative luminescence units
- AtheNA signal [13]: 5 relative luminescence units
- AtheNA signal [14]: 11 relative luminescence units
- AtheNA signal [15]: 4 relative luminescence units
